T1: TNFR1-FC fusion (human TNFR1 receptor binding assay) (human, UniProt P19438 22-211, limits assumed)
T1 construct: also called TNFR1 (RBA); not shown: Fc part, captured by goat anti-human IgG (H&L); not described further
T1 sequence (looked up): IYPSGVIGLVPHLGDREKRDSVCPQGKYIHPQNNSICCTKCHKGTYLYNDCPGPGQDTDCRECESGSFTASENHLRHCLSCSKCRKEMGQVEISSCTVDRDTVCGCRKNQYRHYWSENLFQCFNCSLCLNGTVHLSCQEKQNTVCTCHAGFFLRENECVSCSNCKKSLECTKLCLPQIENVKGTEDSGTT

T2: TNFR1 on MRC-5 cells (UniProt P19438 30-455, limits assumed)
T2 sequence (looked up): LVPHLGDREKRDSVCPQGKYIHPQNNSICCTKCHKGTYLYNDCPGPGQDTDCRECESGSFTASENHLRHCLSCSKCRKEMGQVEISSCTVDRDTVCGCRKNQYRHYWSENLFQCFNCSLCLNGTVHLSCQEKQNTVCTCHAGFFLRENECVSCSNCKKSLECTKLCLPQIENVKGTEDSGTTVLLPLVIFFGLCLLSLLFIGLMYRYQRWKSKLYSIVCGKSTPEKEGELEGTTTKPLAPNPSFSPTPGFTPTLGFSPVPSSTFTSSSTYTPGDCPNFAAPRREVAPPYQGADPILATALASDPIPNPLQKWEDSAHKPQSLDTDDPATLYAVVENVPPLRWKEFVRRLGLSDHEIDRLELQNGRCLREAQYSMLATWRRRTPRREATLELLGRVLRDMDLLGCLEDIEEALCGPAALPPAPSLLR


Tests used:
[1] = biological target: T1, TNFR1-FC fusion (human TNFR1 receptor …); assay: RBA assay; taken as the value of the Fc fusion
TNFR1 on MRC-5 cells = biological target: T2, TNFR1 on MRC-5 cells; assay: cell-based or functional assay

| Activity (nM), RBA [1] [nM] | ND50, MRC-5 cell-based assay (TNFα stimulated IL-8 release) (TNFR1 on MRC-5 cells) [nM] | Binder |
| --- | --- | --- |
| 0.047 | – | DMS1544 (DOM1h-131-206 Fc fusion) (Fc fusion, not shown: a dimerising Fc or GST, Dimeric Fc fusion) EVQLLESGGGLVQPGGSLRLSCAASGFTFAHETMVWVRQAPGKGLEWVSHIPPDGQDPFYADSVKGRFTISRDNSKNTLYLQMNSLRAEDTAVYHCALLPKRGPWFDYWGQGTLVTVSSASTHTCPPCPAPELLGGP |
| – | 0.71 | DOM1h-131-206 (other) VH: EVQLLESGGGLVQPGGSLRLSCAASGFTFAHETMVWVRQAPGKGLEWVSHIPPDGQDPFYADSVKGRFTISRDNSKNTLYLQMNSLRAEDTAVYHCALLPKRGPWFDYWGQGTLVTVSS |
